Data as given in FireProtDB (doi:10.1021/bi982828s).
“And” between values parts separate entries of the source, which are not always exact repeats. Equal entries are not always repeated.

Settings: Arachis hypogaea, Thermal, DSC, Sodium phosphate 0.05 M, NaCl 0.15 M, transition: 3, reversible: yes, whole UniProt chain shown

B1: Galactose-binding lectin wild type, P02872 (protein)
chain: MKPFCVFLTFFLLLAASSKKVDSAETVSFNFNSFSEGNPAINFQGDVTVLSNGNIQLTNLNKVNSVGRVLYAMPVRIWSSATGNVASFLTSFSFEMKDIKDYDPADGIIFFIAPEDTQIPAGSIGGGTLGVSDTKGAGHFVGVEFDTYSNSEYNDPPTDHVGIDVNSVDSVKTVPWNSVSGAVVKVTVIYDSSTKTLSVAVTNDNGDITTIAQVVDLKAKLPERVKFGFSASGSLGGRQIHLIRSWSFTSTLITTTRRSIDNNEKKIMNMASA
Tm (pH 5.5): 56.9 °C and 61.2 °C | unfolding enthalpy (calorimetric) (pH 5.5): 212 kcal/mol and 113 kcal/mol | Tm (pH 6): 57.5 °C | unfolding enthalpy (calorimetric) (pH 6): 218 kcal/mol | Tm (pH 6.5): 58 °C and 62.5 °C | unfolding enthalpy (calorimetric) (pH 6.5): 225 kcal/mol and 121 kcal/mol | Tm (pH 7): 58.5 °C | unfolding enthalpy (calorimetric) (pH 7): 231 kcal/mol | unfolding enthalpy (van 't Hoff) (pH 7.4): 75.1 kcal/mol and 149 kcal/mol | Tm (pH 7.8): 60.1 °C and 64.4 °C | unfolding enthalpy (calorimetric) (pH 7.8): 245 kcal/mol and 132 kcal/mol | Tm (pH 8.2): 61.2 °C and 65 °C | unfolding enthalpy (calorimetric) (pH 8.2): 251 kcal/mol and 135 kcal/mol
